According to IntAct's records for PubMed 18547146:

B1: BH3-interacting domain death agonist (Mus musculus), P70444 (parent)
chain: MDSEVSNGSGLGAEHITDLLVFGFLQSSGCTRQELEVLGRELPVQAYWEADLEDELQTDGSQASRSFNQGRIEPDSESQEEIIHNIARHLAQIGDEMDHNIQPTLVRQLAAQFMNGSLSEEDKRNCLAKALDEVKTAFPRDMENDKAMLIMTMLLAKKVASHAPSLLRDVFHTTVNFINQNLFSYVRNLVRNEMD

Variants of: B1
Details: with BCL2L1, Q07817-1
Sequence of BCL2L1, Q07817-1 (Q07817 whole entry): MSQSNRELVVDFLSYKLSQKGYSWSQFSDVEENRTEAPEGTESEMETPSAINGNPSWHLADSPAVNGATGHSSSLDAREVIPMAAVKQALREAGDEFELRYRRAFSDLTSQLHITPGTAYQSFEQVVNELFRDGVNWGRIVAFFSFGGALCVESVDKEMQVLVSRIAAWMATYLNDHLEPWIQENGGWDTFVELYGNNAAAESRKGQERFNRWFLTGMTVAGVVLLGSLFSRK

Variant | effect of a mutation on the interaction
MDSEVSNGSGLGAEHITDLLVFGFLQSSGCTRQELEVLGRELPVQAYWEADLEDELQTDGSQASRSFNQGRIEPDSESQEEIIHNIARHLAQIGDEAAHNIQPTLVRQLAAQFMNGSLSEEDKRNCLAKALDEVKTAFPRDMENDKAMLIMTMLLAKKVASHAPSLLRDVFHTTVNFINQNLFSYVRNLVRNEMD | disrupting interaction
